Results on two molecules are retold here after article PMC5814901.

For assay [1], the target named is UvrAB complex formed beforehand on DNA tightropes (Bacillus caldotenax) (UniProt P56981). In words: single-molecule fluorescence colocalisation on DNA tightropes (two colours); UvrAB complexes first formed on undamaged DNA tightropes with the Qdot on UvrB (unlabelled, non-biotinylated UvrA) or on UvrA; streptavidin-Qdot-labelled biotin-UvrC of another colour then added; dual-coloured complexes counted; room temperature; ABC buffer.

Assay [2] shares this target. Briefly: single-molecule fluorescence colocalisation on DNA tightropes (three colours); UvrA, UvrB and UvrC (1:1:0.5 nM) labelled with different Qdots (565, 605, 655 nm), incubated together, then added to undamaged λ-DNA tightropes; room temperature; ABC buffer (50 mM Tris-HCl pH 7.5, 50 mM KCl, 1 mM ATP, 10 mM MgCl2, 10 mM DTT).
In assay [3] the target is UvrA (Bacillus caldotenax) (Bacillus caldotenax). The description is as above.
In assay [4] the target is UvrC (Bacillus caldotenax) (Bacillus caldotenax). The assay is described as above.

In assay [1], “UvrC (Bacillus caldotenax) (natural protein)” registered an occurrence of the dual-colour complex among DNA-bound Qdots of 16.6%. Besides, in assay [2], the occurrence of the triple-coloured complex among DNA-bound Qdots was 1.6%.

B1: UvrB (Bacillus caldotenax) (natural protein)
chain: MVEGRFQLVAPYEPQGDQPQAIAKLVDGLRRGVKHQTLLGATGTGKTFTISNVIAQVNKPTLVIAHNKTLAGQLYSELKEFFPHNAVEYFVSYYDYYQPEAYVPQTDTYIEKDAKINDEIDKLRHSATSALFERRDVIIVASVSCIYGLGSPEEYRELVVSLRVGMEIERNALLRRLVDIQYDRNDIDFRGTFRVRGDVVEIFPASRDEHCIRVEFFGDEIERIREVDALTGKVLGEREHVAIFPASHFVTREEKMRLAIQNIEQELEERLAELRAQGKLLEAQRLEQRTRYDLEMMREMGFCSGIENYSRHLALRPPGSTPYTLLDYFPDDFLIIVDESHVTLPQLRGMYNGDRARKQVLVDHGFRLPSALDNRPLTFEEFEQKINQIIYVSATPGPYELEHSPGVVEQIIRPTGLLDPTIDVRPTKGQIDDLIGEIRERVERNERTLVTTLTKKMAEDLTDYLKEAGIKVAYLHSEIKTLERIEIIRDLRLGKYDVLVGINLLREGLDIPEVSLVAILDADKEGFLRSERSLIQTIGRAARNANGHVIMYADTITKSMEIAIQETKRRRAIQEEYNRKHGIVPRTVKKEIRDVIRATYAAEETEMYEAKPAAAMTKQEREELIRTLEAEMKEAAKALDFERAAQLRDIIFELKAEG
Turning to B1, the occurrence of the complex among DNA-bound Qdots in assay [3] was determined as 6.7%; in assay [4], 1.6%.
